From publication doi:10.1101/2021.01.28.428610

Target: Cg1978-C-His (Gip with a C-terminal His tag) (Corynebacterium glutamicum ATCC 13032 (CGP3 prophage))
Test: SPR

Substance: GyrA-N-Strep (C. glutamicum DNA gyrase subunit A with an N-terminal Strep-tag) (from UniProt Q8NUC6 1-856) (natural protein)
- Kd: 5.4 nM
- koff: 0.00092 s⁻¹
- kon: 97000 M⁻¹ s⁻¹
